B1: nanobody F2 (monovalent VHH, pOPINO construct) (VHH)
VHH: QVQLVESGGGLVQAGGSLRLACIASGRTFHSYVMAWFRQAPGKEREFVAAISWSSTPTYYGESVKGRFTISRDNAKNTVYLQMNRLKPEDTAVYFCAADRGESYYYTRPTEYEFWGQGTQVTVSS
B2: nanobody C1 (monovalent VHH, pOPINO construct) (VHH)
VHH: QVQLVESGGGLVQPGGSLRLSCAASGFTNDFYSIAWFRQAPGKEREGVSWLSVSDNTPTYVDSVKDRFTISRHNANNTVYLQMNMLKPEDTAIYYCAAGRFAGRDTWPSSYDYWGQGTQVTVSS

Legend:
[1] = biological target: T1, Alpha (B.1.1.7) RBD, biotinylated (SARS-CoV-2, Alpha (B.1.1.7), N501Y, biotinylated (site not stated)); assay: SPR; details: both partners purified
T1 construct: also called Alpha RBD; RBD-Kent

[2] = biological target: T2, Beta (B.1.351) RBD, biotinylated (SARS-CoV-2, Beta (B.1.351), N501Y | E484K | K417N, biotinylated (site not stated)); assay: SPR; details: both partners purified
T2 construct: also called Beta RBD; Beta-RBD

| Binder | Kd [1] | T1/2 [1] | Kd [2] | T1/2 [2] |
| --- | --- | --- | --- | --- |
| B1 | 0.047 nM | 51 min | 0.038 nM | 52 min |
| B2 | 0.725 nM | 21 min | 0.648 nM | – |

Reference: paper PMC8458290 (Nature Communications, 2021)
